Assay results published in the supplement of paper PMC10065799, “High-throughput profiling of sequence recognition by tyrosine kinases and SH2 domains using bacterial peptide display” (eLife, 2023).
Blank lines part the entries; values can stand above or below the sequence they belong to.

Tests used:
AncSZ = test: phosphorylation enrichment, bacterial display (enrichment ratio); higher = better substrate or ligand; peptides without Tyr show the background
EPHB1 = EPHB1 (UniProt P54762); test: as above
EPHB2 = EPHB2 (UniProt P29323); test: as above
Chain of EPHB2 (P29323 whole entry, looked up): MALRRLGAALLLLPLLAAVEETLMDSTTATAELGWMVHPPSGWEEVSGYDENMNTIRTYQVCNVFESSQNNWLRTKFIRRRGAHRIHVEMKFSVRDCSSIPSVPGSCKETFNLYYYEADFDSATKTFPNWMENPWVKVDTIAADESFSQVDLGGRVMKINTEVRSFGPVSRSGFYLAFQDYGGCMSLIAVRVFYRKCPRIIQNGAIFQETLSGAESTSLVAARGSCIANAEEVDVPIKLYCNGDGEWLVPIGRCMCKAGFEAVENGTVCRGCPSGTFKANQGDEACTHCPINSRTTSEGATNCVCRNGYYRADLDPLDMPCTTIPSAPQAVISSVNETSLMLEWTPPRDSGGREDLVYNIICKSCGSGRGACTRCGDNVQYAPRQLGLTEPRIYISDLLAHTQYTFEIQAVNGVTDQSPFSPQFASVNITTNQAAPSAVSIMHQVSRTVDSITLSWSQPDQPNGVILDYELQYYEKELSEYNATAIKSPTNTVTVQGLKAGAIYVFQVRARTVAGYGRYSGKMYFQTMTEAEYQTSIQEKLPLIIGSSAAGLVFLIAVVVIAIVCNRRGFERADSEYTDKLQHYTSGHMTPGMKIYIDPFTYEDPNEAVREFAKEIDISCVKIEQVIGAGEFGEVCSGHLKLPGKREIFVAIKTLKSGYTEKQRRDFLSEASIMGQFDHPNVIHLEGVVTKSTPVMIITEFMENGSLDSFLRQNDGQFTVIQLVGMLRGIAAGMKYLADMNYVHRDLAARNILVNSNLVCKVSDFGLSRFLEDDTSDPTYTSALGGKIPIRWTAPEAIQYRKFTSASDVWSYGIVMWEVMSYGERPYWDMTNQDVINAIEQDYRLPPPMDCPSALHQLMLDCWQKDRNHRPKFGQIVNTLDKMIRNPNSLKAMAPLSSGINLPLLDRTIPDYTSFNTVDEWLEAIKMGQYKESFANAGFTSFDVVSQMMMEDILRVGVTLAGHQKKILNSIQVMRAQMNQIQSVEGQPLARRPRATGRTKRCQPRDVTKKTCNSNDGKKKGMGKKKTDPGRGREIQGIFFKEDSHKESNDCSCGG

FGFR1 = FGFR1 (UniProt P11362); test: as above
FGFR3 = FGFR3 (UniProt P22607); test: as above
Chain of FGFR3 (P22607 whole entry, looked up): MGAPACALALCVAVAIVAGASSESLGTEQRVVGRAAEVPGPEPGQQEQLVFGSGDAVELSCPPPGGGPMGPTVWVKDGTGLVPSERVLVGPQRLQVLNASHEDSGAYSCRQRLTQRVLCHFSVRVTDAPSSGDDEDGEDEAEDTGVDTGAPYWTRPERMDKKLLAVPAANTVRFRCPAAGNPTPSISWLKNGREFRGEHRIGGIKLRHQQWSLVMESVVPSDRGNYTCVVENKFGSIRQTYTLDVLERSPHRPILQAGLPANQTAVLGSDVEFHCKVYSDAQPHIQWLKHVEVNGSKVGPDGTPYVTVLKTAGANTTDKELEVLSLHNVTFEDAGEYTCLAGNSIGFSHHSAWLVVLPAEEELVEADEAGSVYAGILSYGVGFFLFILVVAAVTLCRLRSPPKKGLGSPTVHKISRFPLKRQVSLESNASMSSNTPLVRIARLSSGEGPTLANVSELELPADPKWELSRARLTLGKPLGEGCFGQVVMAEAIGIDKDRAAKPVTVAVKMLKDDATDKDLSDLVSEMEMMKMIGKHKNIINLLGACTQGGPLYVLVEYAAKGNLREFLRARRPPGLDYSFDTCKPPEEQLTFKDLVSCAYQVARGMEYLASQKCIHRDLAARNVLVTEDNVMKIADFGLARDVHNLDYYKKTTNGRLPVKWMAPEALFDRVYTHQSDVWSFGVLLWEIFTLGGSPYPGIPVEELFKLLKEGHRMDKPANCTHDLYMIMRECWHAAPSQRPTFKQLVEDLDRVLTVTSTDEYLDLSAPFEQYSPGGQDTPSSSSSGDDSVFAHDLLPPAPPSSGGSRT

Fer (mouse) = test: as above
Fes = Fes (UniProt P07332); test: as above
Chain of Fes (P07332 whole entry, looked up): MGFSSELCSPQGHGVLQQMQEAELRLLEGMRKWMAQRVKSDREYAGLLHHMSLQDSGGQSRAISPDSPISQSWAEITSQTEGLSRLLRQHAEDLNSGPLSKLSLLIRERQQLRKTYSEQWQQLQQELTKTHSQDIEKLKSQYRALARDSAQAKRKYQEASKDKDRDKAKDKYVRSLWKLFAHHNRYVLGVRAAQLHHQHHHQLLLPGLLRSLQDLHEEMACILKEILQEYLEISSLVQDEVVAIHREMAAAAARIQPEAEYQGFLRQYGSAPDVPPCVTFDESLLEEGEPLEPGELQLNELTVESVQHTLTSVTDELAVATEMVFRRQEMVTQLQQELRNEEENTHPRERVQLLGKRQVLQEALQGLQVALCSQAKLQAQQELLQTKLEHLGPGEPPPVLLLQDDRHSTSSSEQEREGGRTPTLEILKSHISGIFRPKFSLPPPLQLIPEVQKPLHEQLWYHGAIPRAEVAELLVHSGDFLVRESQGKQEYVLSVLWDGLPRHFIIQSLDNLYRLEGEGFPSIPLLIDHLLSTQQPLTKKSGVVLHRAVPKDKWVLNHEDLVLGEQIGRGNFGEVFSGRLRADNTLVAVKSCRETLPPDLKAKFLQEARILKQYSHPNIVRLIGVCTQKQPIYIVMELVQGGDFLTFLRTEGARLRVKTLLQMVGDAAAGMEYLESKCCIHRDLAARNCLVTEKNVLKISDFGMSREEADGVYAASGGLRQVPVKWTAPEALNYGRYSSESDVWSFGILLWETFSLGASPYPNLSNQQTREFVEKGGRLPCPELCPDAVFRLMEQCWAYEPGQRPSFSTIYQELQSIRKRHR

Fyn = Fyn (UniProt P06241); test: as above
Chain of Fyn (P06241 whole entry, looked up): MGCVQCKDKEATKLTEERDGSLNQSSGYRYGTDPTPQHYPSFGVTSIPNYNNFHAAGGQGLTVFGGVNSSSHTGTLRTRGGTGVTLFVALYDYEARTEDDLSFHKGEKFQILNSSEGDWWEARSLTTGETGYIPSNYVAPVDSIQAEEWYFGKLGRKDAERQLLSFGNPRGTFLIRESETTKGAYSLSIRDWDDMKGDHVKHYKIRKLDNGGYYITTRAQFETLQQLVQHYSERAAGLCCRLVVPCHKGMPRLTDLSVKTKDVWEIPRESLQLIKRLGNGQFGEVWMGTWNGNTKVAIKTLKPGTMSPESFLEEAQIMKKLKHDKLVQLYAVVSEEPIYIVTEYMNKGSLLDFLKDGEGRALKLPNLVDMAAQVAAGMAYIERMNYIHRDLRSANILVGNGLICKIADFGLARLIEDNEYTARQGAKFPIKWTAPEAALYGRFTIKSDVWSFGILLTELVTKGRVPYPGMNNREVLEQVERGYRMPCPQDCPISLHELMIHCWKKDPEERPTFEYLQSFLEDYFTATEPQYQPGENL

Hck = Hck (UniProt P08631); test: as above
Chain of Hck (P08631 whole entry, looked up): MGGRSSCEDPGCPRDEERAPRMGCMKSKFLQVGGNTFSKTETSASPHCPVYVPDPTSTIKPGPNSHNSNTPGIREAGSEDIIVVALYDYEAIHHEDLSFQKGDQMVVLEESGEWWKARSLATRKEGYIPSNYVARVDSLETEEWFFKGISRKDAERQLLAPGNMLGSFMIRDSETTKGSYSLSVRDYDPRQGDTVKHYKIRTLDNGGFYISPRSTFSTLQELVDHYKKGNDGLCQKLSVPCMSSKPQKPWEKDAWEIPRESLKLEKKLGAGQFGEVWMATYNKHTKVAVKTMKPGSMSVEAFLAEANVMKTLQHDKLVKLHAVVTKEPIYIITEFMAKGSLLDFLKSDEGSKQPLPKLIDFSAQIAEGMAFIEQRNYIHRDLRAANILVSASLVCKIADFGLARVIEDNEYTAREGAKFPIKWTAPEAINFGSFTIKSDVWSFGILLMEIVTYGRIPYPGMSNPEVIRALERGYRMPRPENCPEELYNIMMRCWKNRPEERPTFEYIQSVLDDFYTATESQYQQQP

Jak2 = Jak2 (UniProt O60674); test: as above
MERTK = MERTK (UniProt Q12866); test: as above
Chain of MERTK (Q12866 whole entry, looked up): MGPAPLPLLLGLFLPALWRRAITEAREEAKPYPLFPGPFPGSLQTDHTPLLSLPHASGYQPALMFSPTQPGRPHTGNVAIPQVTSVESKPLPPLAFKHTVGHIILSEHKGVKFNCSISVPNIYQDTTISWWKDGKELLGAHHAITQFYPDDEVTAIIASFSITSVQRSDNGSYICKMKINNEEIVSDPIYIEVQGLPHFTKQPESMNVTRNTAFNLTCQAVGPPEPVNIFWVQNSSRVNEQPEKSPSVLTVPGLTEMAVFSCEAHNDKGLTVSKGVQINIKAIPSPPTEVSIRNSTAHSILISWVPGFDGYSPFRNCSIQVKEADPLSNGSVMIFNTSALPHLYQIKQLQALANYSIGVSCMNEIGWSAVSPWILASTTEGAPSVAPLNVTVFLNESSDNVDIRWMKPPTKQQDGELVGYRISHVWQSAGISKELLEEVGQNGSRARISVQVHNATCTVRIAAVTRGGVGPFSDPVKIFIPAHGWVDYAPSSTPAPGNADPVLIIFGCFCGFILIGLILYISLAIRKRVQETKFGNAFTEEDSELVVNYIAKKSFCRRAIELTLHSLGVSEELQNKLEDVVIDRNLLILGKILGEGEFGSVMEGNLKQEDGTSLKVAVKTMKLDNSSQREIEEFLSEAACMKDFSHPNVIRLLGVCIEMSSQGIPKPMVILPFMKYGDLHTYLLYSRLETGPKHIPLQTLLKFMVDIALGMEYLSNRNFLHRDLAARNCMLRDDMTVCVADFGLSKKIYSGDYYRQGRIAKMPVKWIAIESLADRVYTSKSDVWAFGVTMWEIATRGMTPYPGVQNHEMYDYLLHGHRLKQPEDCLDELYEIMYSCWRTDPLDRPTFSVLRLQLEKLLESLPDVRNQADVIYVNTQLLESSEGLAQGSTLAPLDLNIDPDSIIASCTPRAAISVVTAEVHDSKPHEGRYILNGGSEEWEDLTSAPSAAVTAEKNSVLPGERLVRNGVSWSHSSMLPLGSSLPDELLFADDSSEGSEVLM

c-Abl (mouse) = test: as above
c-Src = test: as above
Grb2 SH2 = Grb2 SH2 (UniProt P62993); test: SH2 binding enrichment of the phosphorylated peptide, bacterial display (enrichment ratio); higher = better substrate or ligand; peptides without Tyr show the background
SHP2-C SH2 = test: as above
c-Src SH2 = test: as above
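Throughout, for SH2 binding enrichment of the phosphorylated peptide, bacterial display: peptide library displayed on the E. coli surface as eCPX fusions, selected cells deep-sequenced, score is each peptide's frequency after selection divided by its frequency in the input.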
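Throughout, for phosphorylation enrichment, bacterial display: 11-residue human phosphosite peptides and single-mutation variants displayed on the E. coli surface, counted by deep sequencing, each peptide's frequency after selection divided by its frequency in the unselected input library; frequency after pTyr selection over input frequency; kinase dosed for 20-30% of maximal phosphorylation in three min.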

SH2 binding enrichment (Grb2 SH2): 0.805
SH2 binding enrichment (SHP2-C SH2): 0.631
SH2 binding enrichment (c-Src SH2): 1.24
Sequence: KSPDSYQKILL [ATM_Y1415]
phosphorylation enrichment (AncSZ): 0.55
phosphorylation enrichment (EPHB1): 0.397
phosphorylation enrichment (EPHB2): 0.437
phosphorylation enrichment (FGFR1): 0.488
phosphorylation enrichment (FGFR3): 0.451
phosphorylation enrichment (Fer (mouse)): 0.393
phosphorylation enrichment (Fes): 0.801
phosphorylation enrichment (Fyn): 0.372
phosphorylation enrichment (Hck): 0.395
phosphorylation enrichment (Jak2): 0.712
phosphorylation enrichment (MERTK): 0.437
phosphorylation enrichment (c-Abl (mouse)): 0.569
phosphorylation enrichment (c-Src): 0.429

SH2 binding enrichment (Grb2 SH2): 0.834
SH2 binding enrichment (SHP2-C SH2): 0.542
SH2 binding enrichment (c-Src SH2): 0.547
Sequence: DDDPEYRKFLE [UPF3B_Y160]
phosphorylation enrichment (AncSZ): 1.32
phosphorylation enrichment (EPHB1): 0.612
phosphorylation enrichment (EPHB2): 0.7
phosphorylation enrichment (FGFR1): 0.669
phosphorylation enrichment (FGFR3): 0.799
phosphorylation enrichment (Fer (mouse)): 0.478
phosphorylation enrichment (Fes): 1.22
phosphorylation enrichment (Fyn): 0.617
phosphorylation enrichment (Hck): 0.597
phosphorylation enrichment (Jak2): 1.06
phosphorylation enrichment (MERTK): 0.566
phosphorylation enrichment (c-Abl (mouse)): 0.577
phosphorylation enrichment (c-Src): 0.483

SH2 binding enrichment (Grb2 SH2): 1.33
SH2 binding enrichment (SHP2-C SH2): 0.787
SH2 binding enrichment (c-Src SH2): 0.778
Sequence: FHIDHYLGKEM [G6PD_Y202_R198H_YF]
phosphorylation enrichment (AncSZ): 0.556
phosphorylation enrichment (EPHB1): 0.438
phosphorylation enrichment (EPHB2): 0.553
phosphorylation enrichment (FGFR1): 0.53
phosphorylation enrichment (FGFR3): 0.481
phosphorylation enrichment (Fer (mouse)): 0.342
phosphorylation enrichment (Fes): 0.688
phosphorylation enrichment (Fyn): 0.39
phosphorylation enrichment (Hck): 0.503
phosphorylation enrichment (Jak2): 0.467
phosphorylation enrichment (MERTK): 0.331
phosphorylation enrichment (c-Abl (mouse)): 0.415
phosphorylation enrichment (c-Src): 0.334

Sequence: NFRTTYVNANE [KCNH2_Y475]
phosphorylation enrichment (AncSZ): 0.892
phosphorylation enrichment (EPHB1): 0.404
phosphorylation enrichment (EPHB2): 0.464
phosphorylation enrichment (FGFR1): 0.498
phosphorylation enrichment (FGFR3): 0.719
phosphorylation enrichment (Fer (mouse)): 0.551
phosphorylation enrichment (Fes): 1.27
phosphorylation enrichment (Fyn): 0.444
phosphorylation enrichment (Hck): 0.558
phosphorylation enrichment (Jak2): 1.29
phosphorylation enrichment (MERTK): 0.482
phosphorylation enrichment (c-Abl (mouse)): 0.61
phosphorylation enrichment (c-Src): 0.589
SH2 binding enrichment (Grb2 SH2): 15.1
SH2 binding enrichment (SHP2-C SH2): 1.48
SH2 binding enrichment (c-Src SH2): 2.03

SH2 binding enrichment (Grb2 SH2): 0.823
SH2 binding enrichment (SHP2-C SH2): 0.879
SH2 binding enrichment (c-Src SH2): 9.23
Sequence: ALSDGYWVVSN [TPP1_Y459]
phosphorylation enrichment (AncSZ): 1.19
phosphorylation enrichment (EPHB1): 0.475
phosphorylation enrichment (EPHB2): 0.518
phosphorylation enrichment (FGFR1): 1.32
phosphorylation enrichment (FGFR3): 1.1
phosphorylation enrichment (Fer (mouse)): 0.398
phosphorylation enrichment (Fes): 1.01
phosphorylation enrichment (Fyn): 0.44
phosphorylation enrichment (Hck): 0.635
phosphorylation enrichment (Jak2): 1.79
phosphorylation enrichment (MERTK): 0.372
phosphorylation enrichment (c-Abl (mouse)): 0.71
phosphorylation enrichment (c-Src): 0.516

SH2 binding enrichment (Grb2 SH2): 0.699
SH2 binding enrichment (SHP2-C SH2): 0.465
SH2 binding enrichment (c-Src SH2): 0.428
Sequence: VSRGRYRPEEC [B4GALT4_Y113_Q116E]
phosphorylation enrichment (AncSZ): 0.692
phosphorylation enrichment (EPHB1): 0.443
phosphorylation enrichment (EPHB2): 0.51
phosphorylation enrichment (FGFR1): 0.439
phosphorylation enrichment (FGFR3): 0.524
phosphorylation enrichment (Fer (mouse)): 0.52
phosphorylation enrichment (Fes): 0.512
phosphorylation enrichment (Fyn): 0.472
phosphorylation enrichment (Hck): 0.522
phosphorylation enrichment (Jak2): 0.561
phosphorylation enrichment (MERTK): 0.614
phosphorylation enrichment (c-Abl (mouse)): 0.568
phosphorylation enrichment (c-Src): 0.562

SH2 binding enrichment (Grb2 SH2): 1.55
SH2 binding enrichment (SHP2-C SH2): 8.46
SH2 binding enrichment (c-Src SH2): 1.72
Sequence: LENSTYQYIRV [CRB1_Y760]
phosphorylation enrichment (AncSZ): 2.11
phosphorylation enrichment (EPHB1): 12.1
phosphorylation enrichment (EPHB2): 5.02
phosphorylation enrichment (FGFR1): 13
phosphorylation enrichment (FGFR3): 7.65
phosphorylation enrichment (Fer (mouse)): 25.5
phosphorylation enrichment (Fes): 1.86
phosphorylation enrichment (Fyn): 5.14
phosphorylation enrichment (Hck): 10.9
phosphorylation enrichment (Jak2): 1.11
phosphorylation enrichment (MERTK): 7.03
phosphorylation enrichment (c-Abl (mouse)): 0.91
phosphorylation enrichment (c-Src): 3.07

SH2 binding enrichment (Grb2 SH2): 0.825
SH2 binding enrichment (SHP2-C SH2): 0.577
SH2 binding enrichment (c-Src SH2): 0.516
Sequence: IGCHAYGDQFR [IDH1_Y135_R132C_YF]
phosphorylation enrichment (AncSZ): 0.933
phosphorylation enrichment (EPHB1): 0.516
phosphorylation enrichment (EPHB2): 0.532
phosphorylation enrichment (FGFR1): 0.529
phosphorylation enrichment (FGFR3): 0.659
phosphorylation enrichment (Fer (mouse)): 0.55
phosphorylation enrichment (Fes): 1.04
phosphorylation enrichment (Fyn): 0.495
phosphorylation enrichment (Hck): 0.51
phosphorylation enrichment (Jak2): 0.933
phosphorylation enrichment (MERTK): 0.497
phosphorylation enrichment (c-Abl (mouse)): 0.82
phosphorylation enrichment (c-Src): 0.611

SH2 binding enrichment (Grb2 SH2): 1.08
SH2 binding enrichment (SHP2-C SH2): 0.596
SH2 binding enrichment (c-Src SH2): 0.524
Sequence: GREFIYVDPMQ [PDGFRA_Y574_H570R_YF]
phosphorylation enrichment (AncSZ): 1.03
phosphorylation enrichment (EPHB1): 3.28
phosphorylation enrichment (EPHB2): 5.79
phosphorylation enrichment (FGFR1): 7.2
phosphorylation enrichment (FGFR3): 4.31
phosphorylation enrichment (Fer (mouse)): 0.589
phosphorylation enrichment (Fes): 0.729
phosphorylation enrichment (Fyn): 0.906
phosphorylation enrichment (Hck): 1.2
phosphorylation enrichment (Jak2): 0.703
phosphorylation enrichment (MERTK): 2
phosphorylation enrichment (c-Abl (mouse)): 3.31
phosphorylation enrichment (c-Src): 1.36
